Data as given in patent US20200199241A1 (Chugai, published 2020).

Tests used:
Assay in all cases: SPR (Biacore);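 further: antibody variants captured on sensor chip, Fcγ receptor flowed over at 25 °C, bound receptor normalized to amount of captured antibody, expressed relative to reference antibody set as 100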
human FcγRIIb = molecular target: T1, human FcγRIIb (human, UniProt P31994 43-217, limits assumed)
T1 construct: also called FcgRIIb
T1 sequence: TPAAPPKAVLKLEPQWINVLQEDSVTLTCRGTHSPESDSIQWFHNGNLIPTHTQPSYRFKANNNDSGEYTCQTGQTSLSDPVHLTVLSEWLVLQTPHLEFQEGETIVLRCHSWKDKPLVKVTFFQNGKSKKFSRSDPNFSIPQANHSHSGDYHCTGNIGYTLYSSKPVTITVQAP
Method: (§1) Interaction between each modified antibody and Fcγ receptor prepared in the manner described above was analyzed using the BIACORE™ T100 surface plasmon resonance system (GE Healthcare), BIACORE™ T200 surface plasmon resonance system (GE Healthcare), BIACORE™ A100 surface plasmon resonance system or BIACORE™ 4000 surface plasmon resonance system. HBS-EP+ (GE Healthcare) was used for the running buffer, and measurements were carried out at 25° C. The chips used were chips in which antigen peptides, Protein A (Thermo Scientific), Protein A/G (Thermo Scientific) or Protein L (ACTIGEN® protein (Alltech or BioVision) were immobilized on the Series S Sensor Chip CMS (GE Healthcare) or Series S Sensor Chip CM4 (GE Healthcare) by amine coupling, or chips in which preliminarily biotinylated antigen peptides were allowed to interact and then immobilized on the Series S Sensor Chip SA (certified) (GE Healthcare). The target antibodies were captured on these sensor chips, Fcγ receptor diluted with the running buffer was allowed to interact, followed by measurement of the amount of bound antibody. The amounts bound were compared between antibodies. However, since the amount of Fcγ receptor bound depends on the amount of captured antibody, the values used for comparison were first corrected by dividing the amount of Fcγ receptor bound by the captured amount of each antibody. Through reaction with 10 mM glycine-HCl at pH 1.5, the sensor chips were regenerated by washing off antibody captured on the sensor chips and used repeatedly.
(§2) Binding strength was evaluated according to the following method based on the results of analyzing the interaction with each FcγR. […] That value was then further multiplied by 100, and the resulting value was used as an indicator of relative binding activity to each FcγR.

human FcγRIIIa(F) = molecular target: T2, human FcγRIIIa(F) (human, UniProt P08637 17-208, limits assumed)
T2 construct: also called FcgRIIIaF; allotype F158
T2 sequence (P08637 other isoform, or with tags, fused parts or gaps limits assumed): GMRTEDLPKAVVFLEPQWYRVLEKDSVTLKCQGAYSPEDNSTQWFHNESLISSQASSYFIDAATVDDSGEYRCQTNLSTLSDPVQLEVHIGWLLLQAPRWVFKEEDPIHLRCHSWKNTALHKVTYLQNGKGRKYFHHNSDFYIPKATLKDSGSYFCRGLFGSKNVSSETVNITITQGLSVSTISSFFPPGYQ
Method: as §1, §2

human FcγRIIa(H) = molecular target: T3, human FcγRIIa(H) (human, UniProt P12318 36-217)
T3 construct: also called FcgRIIaH; FcγRIIa type H
T3 sequence: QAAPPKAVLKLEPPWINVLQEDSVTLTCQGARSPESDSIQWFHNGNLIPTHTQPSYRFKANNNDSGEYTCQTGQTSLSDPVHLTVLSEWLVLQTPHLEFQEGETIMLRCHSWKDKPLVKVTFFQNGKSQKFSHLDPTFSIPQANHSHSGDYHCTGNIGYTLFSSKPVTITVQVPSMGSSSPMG
Method: as §1, §2

human FcγRIa = molecular target: T4, human FcγRIa (human, UniProt P12314 16-292, limits assumed)
T4 construct: also called FcgRIa; FcγRI (CD64)
T4 sequence (P12314 16-292 limits assumed): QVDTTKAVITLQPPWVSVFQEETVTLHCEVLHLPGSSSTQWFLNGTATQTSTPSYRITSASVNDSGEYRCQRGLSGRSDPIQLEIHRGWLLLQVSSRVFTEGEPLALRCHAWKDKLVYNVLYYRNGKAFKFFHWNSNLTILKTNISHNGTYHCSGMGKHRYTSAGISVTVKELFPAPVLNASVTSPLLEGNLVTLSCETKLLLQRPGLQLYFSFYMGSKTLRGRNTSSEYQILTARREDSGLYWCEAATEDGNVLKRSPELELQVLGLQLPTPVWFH
Method: as §1, §2

human FcγRIIa(R) = molecular target: T5, human FcγRIIa(R) (human, UniProt P12318 36-217)
T5 construct: also called FcgRIIaR; FcγRIIa type R
T5 chain: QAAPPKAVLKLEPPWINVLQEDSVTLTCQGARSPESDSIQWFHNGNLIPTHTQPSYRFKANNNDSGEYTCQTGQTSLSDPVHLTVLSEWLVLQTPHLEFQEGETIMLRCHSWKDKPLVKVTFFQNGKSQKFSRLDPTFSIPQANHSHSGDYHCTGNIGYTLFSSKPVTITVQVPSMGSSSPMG
Method: as §1, §2

B1: GpH7-B3 variant S239Y/GpL16-k0 (antibody, human IgG1)
heavy: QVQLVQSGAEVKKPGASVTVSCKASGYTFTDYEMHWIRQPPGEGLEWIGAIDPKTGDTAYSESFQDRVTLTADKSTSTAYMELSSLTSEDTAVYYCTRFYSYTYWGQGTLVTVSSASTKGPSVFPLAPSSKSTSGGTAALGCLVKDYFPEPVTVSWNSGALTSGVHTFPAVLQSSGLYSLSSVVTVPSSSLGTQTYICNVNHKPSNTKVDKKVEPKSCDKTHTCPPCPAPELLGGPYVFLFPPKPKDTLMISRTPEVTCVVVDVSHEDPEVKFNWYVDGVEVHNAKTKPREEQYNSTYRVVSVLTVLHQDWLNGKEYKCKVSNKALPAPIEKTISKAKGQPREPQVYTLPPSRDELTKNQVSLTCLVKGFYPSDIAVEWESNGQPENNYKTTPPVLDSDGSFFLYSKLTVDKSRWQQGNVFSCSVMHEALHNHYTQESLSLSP
light: DIVMTQSPLSLPVTPGEPASISCQASESLVHSNRNTYLHWYLQKPGQSPQLLIYKVSNRFSGVPDRFSGSGSGTDFTLKISRVEAEDVGVYYCSQNTHVPPTFGQGTKVEIE
notes: copies: 2 + 2
With B1 the relative binding activity (human FcγRIIb) was 12 % of GpH7-B3/GpL16-k0, the relative binding activity (human FcγRIIIa(F)) was 6 % of GpH7-B3/GpL16-k0 and the relative binding activity (human FcγRIIa(H)) was 5 % of GpH7-B3/GpL16-k0. The relative binding activity (human FcγRIa) was 69 % of GpH7-B3/GpL16-k0 and the relative binding activity (human FcγRIIa(R)) was 11 % of GpH7-B3/GpL16-k0.

B2: GpH7-B3 variant S267F/GpL16-k0 (antibody, human IgG1)
heavy: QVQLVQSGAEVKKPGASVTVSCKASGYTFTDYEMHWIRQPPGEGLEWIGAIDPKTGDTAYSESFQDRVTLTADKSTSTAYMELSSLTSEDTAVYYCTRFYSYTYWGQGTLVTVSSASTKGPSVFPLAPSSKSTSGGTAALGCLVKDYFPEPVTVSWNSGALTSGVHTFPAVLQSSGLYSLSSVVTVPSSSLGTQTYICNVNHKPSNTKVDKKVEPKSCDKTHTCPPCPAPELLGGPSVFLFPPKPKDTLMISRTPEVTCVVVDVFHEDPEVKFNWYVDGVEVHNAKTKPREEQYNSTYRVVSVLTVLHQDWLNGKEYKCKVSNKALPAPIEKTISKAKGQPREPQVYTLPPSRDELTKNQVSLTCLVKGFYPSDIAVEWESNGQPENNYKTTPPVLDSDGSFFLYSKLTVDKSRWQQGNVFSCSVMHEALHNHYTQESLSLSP
light: DIVMTQSPLSLPVTPGEPASISCQASESLVHSNRNTYLHWYLQKPGQSPQLLIYKVSNRFSGVPDRFSGSGSGTDFTLKISRVEAEDVGVYYCSQNTHVPPTFGQGTKVEIE
notes: copies: 2 + 2
With B2 the relative binding activity (human FcγRIIb) was 18 % of GpH7-B3/GpL16-k0, the relative binding activity (human FcγRIIIa(F)) was 0 % of GpH7-B3/GpL16-k0 and the relative binding activity (human FcγRIIa(H)) was 1 % of GpH7-B3/GpL16-k0. The relative binding activity (human FcγRIa) was 91 % of GpH7-B3/GpL16-k0 and the relative binding activity (human FcγRIIa(R)) was 13 % of GpH7-B3/GpL16-k0.

B3: GpH7-B3 variant S267H/GpL16-k0 (antibody, human IgG1)
heavy: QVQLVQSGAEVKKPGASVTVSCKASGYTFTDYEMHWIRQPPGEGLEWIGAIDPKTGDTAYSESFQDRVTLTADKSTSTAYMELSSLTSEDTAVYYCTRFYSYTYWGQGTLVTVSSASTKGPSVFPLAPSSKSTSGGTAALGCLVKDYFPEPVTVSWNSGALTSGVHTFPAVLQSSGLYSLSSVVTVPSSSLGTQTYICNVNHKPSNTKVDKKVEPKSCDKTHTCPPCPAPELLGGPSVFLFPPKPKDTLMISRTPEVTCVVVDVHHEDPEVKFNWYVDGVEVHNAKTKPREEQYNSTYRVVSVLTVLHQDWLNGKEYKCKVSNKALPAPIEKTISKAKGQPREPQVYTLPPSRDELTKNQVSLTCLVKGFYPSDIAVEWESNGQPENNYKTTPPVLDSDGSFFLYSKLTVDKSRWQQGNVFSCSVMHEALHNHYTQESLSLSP
light: DIVMTQSPLSLPVTPGEPASISCQASESLVHSNRNTYLHWYLQKPGQSPQLLIYKVSNRFSGVPDRFSGSGSGTDFTLKISRVEAEDVGVYYCSQNTHVPPTFGQGTKVEIE
notes: copies: 2 + 2
With B3 the relative binding activity (human FcγRIIb) was 42 % of GpH7-B3/GpL16-k0, the relative binding activity (human FcγRIIIa(F)) was 1 % of GpH7-B3/GpL16-k0 and the relative binding activity (human FcγRIIa(H)) was 3 % of GpH7-B3/GpL16-k0. For the same binder, the relative binding activity (human FcγRIa) was 95 % of GpH7-B3/GpL16-k0 and the relative binding activity (human FcγRIIa(R)) was 27 % of GpH7-B3/GpL16-k0.

B4: GpH7-B3 variant S267K/GpL16-k0 (antibody, human IgG1)
heavy: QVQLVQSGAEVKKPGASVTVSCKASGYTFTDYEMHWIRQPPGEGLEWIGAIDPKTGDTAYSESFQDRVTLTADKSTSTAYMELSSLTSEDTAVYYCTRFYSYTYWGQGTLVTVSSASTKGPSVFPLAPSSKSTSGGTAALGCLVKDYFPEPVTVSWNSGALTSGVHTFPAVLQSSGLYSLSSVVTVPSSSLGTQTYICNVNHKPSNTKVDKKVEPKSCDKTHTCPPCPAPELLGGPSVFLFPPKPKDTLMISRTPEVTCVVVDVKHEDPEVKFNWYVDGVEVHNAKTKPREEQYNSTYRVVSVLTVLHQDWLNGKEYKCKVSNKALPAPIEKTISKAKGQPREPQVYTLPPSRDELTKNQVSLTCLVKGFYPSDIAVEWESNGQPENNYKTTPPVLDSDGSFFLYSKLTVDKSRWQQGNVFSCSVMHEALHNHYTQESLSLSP
light: DIVMTQSPLSLPVTPGEPASISCQASESLVHSNRNTYLHWYLQKPGQSPQLLIYKVSNRFSGVPDRFSGSGSGTDFTLKISRVEAEDVGVYYCSQNTHVPPTFGQGTKVEIE
notes: copies: 2 + 2
For B4, the relative binding activity (human FcγRIIb) was 3 % of GpH7-B3/GpL16-k0, the relative binding activity (human FcγRIIIa(F)) was 1 % of GpH7-B3/GpL16-k0 and the relative binding activity (human FcγRIIa(H)) was 1 % of GpH7-B3/GpL16-k0. The relative binding activity (human FcγRIa) was 68 % of GpH7-B3/GpL16-k0 and the relative binding activity (human FcγRIIa(R)) was 1 % of GpH7-B3/GpL16-k0.

B5: GpH7-B3 variant S267P/GpL16-k0 (antibody, human IgG1)
heavy: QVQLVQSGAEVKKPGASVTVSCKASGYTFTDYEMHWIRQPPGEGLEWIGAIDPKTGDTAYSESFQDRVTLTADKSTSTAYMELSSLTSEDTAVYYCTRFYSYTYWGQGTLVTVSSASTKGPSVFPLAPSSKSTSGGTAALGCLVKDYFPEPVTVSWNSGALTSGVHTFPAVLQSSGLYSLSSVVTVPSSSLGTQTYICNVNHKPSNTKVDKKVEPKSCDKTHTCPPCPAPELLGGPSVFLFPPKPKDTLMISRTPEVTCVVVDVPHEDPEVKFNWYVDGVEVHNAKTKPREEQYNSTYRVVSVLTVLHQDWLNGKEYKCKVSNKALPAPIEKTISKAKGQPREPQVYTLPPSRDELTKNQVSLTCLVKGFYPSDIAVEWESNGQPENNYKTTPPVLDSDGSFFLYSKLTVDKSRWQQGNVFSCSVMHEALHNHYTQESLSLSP
light: DIVMTQSPLSLPVTPGEPASISCQASESLVHSNRNTYLHWYLQKPGQSPQLLIYKVSNRFSGVPDRFSGSGSGTDFTLKISRVEAEDVGVYYCSQNTHVPPTFGQGTKVEIE
notes: copies: 2 + 2
With B5 the relative binding activity (human FcγRIIb) was 5 % of GpH7-B3/GpL16-k0, the relative binding activity (human FcγRIIIa(F)) was 0 % of GpH7-B3/GpL16-k0 and the relative binding activity (human FcγRIIa(H)) was 2 % of GpH7-B3/GpL16-k0. The relative binding activity (human FcγRIa) was 78 % of GpH7-B3/GpL16-k0 and the relative binding activity (human FcγRIIa(R)) was 0 % of GpH7-B3/GpL16-k0.

B6: GpH7-B3 variant S267R/GpL16-k0 (antibody, human IgG1)
heavy: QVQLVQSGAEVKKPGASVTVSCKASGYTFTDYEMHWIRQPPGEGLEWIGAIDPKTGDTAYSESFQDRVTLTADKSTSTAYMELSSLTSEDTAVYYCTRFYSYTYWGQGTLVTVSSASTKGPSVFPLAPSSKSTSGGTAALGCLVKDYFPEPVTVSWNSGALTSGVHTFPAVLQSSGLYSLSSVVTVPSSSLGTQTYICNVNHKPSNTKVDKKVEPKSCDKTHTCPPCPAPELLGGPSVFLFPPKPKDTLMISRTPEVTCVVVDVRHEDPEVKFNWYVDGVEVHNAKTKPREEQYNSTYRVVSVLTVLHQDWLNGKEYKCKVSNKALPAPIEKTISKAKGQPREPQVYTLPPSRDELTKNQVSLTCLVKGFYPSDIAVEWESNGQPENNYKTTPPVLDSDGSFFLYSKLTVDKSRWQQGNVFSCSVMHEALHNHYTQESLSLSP
light: DIVMTQSPLSLPVTPGEPASISCQASESLVHSNRNTYLHWYLQKPGQSPQLLIYKVSNRFSGVPDRFSGSGSGTDFTLKISRVEAEDVGVYYCSQNTHVPPTFGQGTKVEIE
notes: copies: 2 + 2
With B6 the relative binding activity (human FcγRIIb) was 0 % of GpH7-B3/GpL16-k0, the relative binding activity (human FcγRIIIa(F)) was 0 % of GpH7-B3/GpL16-k0 and the relative binding activity (human FcγRIIa(H)) was -1 % of GpH7-B3/GpL16-k0. The relative binding activity (human FcγRIa) was 78 % of GpH7-B3/GpL16-k0 and the relative binding activity (human FcγRIIa(R)) was -6 % of GpH7-B3/GpL16-k0.

B7: GpH7-B3 variant S267W/GpL16-k0 (antibody, human IgG1)
heavy: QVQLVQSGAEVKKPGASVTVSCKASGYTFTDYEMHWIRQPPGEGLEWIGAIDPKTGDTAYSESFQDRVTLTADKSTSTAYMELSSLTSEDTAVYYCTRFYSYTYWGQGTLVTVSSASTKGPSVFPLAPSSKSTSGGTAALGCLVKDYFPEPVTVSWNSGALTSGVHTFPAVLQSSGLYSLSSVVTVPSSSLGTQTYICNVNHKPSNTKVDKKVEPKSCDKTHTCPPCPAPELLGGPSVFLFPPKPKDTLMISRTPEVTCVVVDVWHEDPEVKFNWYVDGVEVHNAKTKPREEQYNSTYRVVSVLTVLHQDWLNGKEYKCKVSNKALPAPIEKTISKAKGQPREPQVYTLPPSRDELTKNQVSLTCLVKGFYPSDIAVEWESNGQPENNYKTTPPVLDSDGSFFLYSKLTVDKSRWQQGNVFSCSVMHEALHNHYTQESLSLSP
light: DIVMTQSPLSLPVTPGEPASISCQASESLVHSNRNTYLHWYLQKPGQSPQLLIYKVSNRFSGVPDRFSGSGSGTDFTLKISRVEAEDVGVYYCSQNTHVPPTFGQGTKVEIE
notes: copies: 2 + 2
With B7 the relative binding activity (human FcγRIIb) was 29 % of GpH7-B3/GpL16-k0, the relative binding activity (human FcγRIIIa(F)) was 2 % of GpH7-B3/GpL16-k0 and the relative binding activity (human FcγRIIa(H)) was 2 % of GpH7-B3/GpL16-k0. For the same binder, the relative binding activity (human FcγRIa) was 97 % of GpH7-B3/GpL16-k0 and the relative binding activity (human FcγRIIa(R)) was 26 % of GpH7-B3/GpL16-k0.

B8: GpH7-B3 variant S267Y/GpL16-k0 (antibody, human IgG1)
heavy: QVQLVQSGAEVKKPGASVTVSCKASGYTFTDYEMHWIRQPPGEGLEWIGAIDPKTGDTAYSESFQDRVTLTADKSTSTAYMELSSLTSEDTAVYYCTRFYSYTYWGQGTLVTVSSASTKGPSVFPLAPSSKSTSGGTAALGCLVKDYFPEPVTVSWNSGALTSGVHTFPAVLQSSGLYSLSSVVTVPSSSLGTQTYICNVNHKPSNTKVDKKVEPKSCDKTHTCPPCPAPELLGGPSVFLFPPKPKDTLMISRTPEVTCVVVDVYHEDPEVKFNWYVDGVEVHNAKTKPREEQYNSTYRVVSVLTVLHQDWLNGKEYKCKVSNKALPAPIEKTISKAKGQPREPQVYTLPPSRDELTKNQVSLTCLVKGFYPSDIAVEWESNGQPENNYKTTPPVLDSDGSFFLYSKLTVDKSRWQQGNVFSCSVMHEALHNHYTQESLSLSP
light: DIVMTQSPLSLPVTPGEPASISCQASESLVHSNRNTYLHWYLQKPGQSPQLLIYKVSNRFSGVPDRFSGSGSGTDFTLKISRVEAEDVGVYYCSQNTHVPPTFGQGTKVEIE
notes: copies: 2 + 2
B8 was tested, and the relative binding activity (human FcγRIIb) was 14 % of GpH7-B3/GpL16-k0, the relative binding activity (human FcγRIIIa(F)) was 1 % of GpH7-B3/GpL16-k0 and the relative binding activity (human FcγRIIa(H)) was 2 % of GpH7-B3/GpL16-k0. The relative binding activity (human FcγRIa) was 96 % of GpH7-B3/GpL16-k0 and the relative binding activity (human FcγRIIa(R)) was 10 % of GpH7-B3/GpL16-k0.

B9: GpH7-B3 variant V266A/GpL16-k0 (antibody, human IgG1)
heavy: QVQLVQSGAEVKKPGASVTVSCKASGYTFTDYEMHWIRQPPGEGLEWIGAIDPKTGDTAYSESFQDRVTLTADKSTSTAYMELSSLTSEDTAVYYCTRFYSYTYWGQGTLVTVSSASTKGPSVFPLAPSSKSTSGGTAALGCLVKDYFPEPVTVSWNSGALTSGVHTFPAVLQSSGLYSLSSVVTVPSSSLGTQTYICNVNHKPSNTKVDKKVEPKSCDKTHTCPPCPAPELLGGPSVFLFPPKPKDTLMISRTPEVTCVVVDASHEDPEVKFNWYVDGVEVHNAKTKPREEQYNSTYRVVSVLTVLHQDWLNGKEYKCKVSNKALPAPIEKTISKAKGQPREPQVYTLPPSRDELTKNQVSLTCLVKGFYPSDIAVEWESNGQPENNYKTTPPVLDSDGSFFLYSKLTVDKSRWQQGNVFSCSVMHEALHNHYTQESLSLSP
light: DIVMTQSPLSLPVTPGEPASISCQASESLVHSNRNTYLHWYLQKPGQSPQLLIYKVSNRFSGVPDRFSGSGSGTDFTLKISRVEAEDVGVYYCSQNTHVPPTFGQGTKVEIE
notes: copies: 2 + 2
With B9 the relative binding activity (human FcγRIIb) was 55 % of GpH7-B3/GpL16-k0, the relative binding activity (human FcγRIIIa(F)) was 26 % of GpH7-B3/GpL16-k0 and the relative binding activity (human FcγRIIa(H)) was 41 % of GpH7-B3/GpL16-k0. The relative binding activity (human FcγRIa) was 95 % of GpH7-B3/GpL16-k0 and the relative binding activity (human FcγRIIa(R)) was 68 % of GpH7-B3/GpL16-k0.

B10: GpH7-B3 variant V266D/GpL16-k0 (antibody, human IgG1)
heavy: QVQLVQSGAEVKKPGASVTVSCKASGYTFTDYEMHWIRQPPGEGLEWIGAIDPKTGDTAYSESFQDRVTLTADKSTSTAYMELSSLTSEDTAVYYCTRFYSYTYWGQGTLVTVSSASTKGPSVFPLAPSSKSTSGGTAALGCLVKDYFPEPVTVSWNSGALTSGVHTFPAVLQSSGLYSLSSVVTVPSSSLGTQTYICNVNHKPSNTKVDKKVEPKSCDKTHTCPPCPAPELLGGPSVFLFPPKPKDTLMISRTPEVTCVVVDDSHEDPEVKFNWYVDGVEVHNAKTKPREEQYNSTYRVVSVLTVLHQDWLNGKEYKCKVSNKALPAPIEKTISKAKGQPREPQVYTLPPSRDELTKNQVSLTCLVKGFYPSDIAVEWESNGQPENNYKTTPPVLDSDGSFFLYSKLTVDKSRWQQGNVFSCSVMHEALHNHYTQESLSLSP
light: DIVMTQSPLSLPVTPGEPASISCQASESLVHSNRNTYLHWYLQKPGQSPQLLIYKVSNRFSGVPDRFSGSGSGTDFTLKISRVEAEDVGVYYCSQNTHVPPTFGQGTKVEIE
notes: copies: 2 + 2
With B10 the relative binding activity (human FcγRIIb) was 2 % of GpH7-B3/GpL16-k0, the relative binding activity (human FcγRIIIa(F)) was 1 % of GpH7-B3/GpL16-k0 and the relative binding activity (human FcγRIIa(H)) was 2 % of GpH7-B3/GpL16-k0. The relative binding activity (human FcγRIa) was 67 % of GpH7-B3/GpL16-k0 and the relative binding activity (human FcγRIIa(R)) was 3 % of GpH7-B3/GpL16-k0.

B11: GpH7-B3 variant V266E/GpL16-k0 (antibody, human IgG1)
heavy: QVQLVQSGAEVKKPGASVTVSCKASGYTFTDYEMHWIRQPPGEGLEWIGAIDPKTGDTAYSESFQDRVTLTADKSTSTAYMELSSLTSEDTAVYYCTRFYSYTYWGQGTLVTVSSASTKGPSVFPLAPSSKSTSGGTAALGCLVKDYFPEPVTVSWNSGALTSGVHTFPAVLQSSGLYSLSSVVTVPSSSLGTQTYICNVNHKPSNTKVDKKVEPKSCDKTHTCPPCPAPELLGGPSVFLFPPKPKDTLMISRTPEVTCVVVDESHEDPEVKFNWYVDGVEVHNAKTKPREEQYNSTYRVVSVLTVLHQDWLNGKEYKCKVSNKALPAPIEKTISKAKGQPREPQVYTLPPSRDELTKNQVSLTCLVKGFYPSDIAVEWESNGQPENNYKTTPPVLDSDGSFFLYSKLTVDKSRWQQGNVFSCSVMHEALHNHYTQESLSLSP
light: DIVMTQSPLSLPVTPGEPASISCQASESLVHSNRNTYLHWYLQKPGQSPQLLIYKVSNRFSGVPDRFSGSGSGTDFTLKISRVEAEDVGVYYCSQNTHVPPTFGQGTKVEIE
notes: copies: 2 + 2
In the case of B11, the relative binding activity (human FcγRIIb) is reported as 0 % of GpH7-B3/GpL16-k0, the relative binding activity (human FcγRIIIa(F)) is reported as -1 % of GpH7-B3/GpL16-k0 and the relative binding activity (human FcγRIIa(H)) is reported as 0 % of GpH7-B3/GpL16-k0. The relative binding activity (human FcγRIa) was 69 % of GpH7-B3/GpL16-k0 and the relative binding activity (human FcγRIIa(R)) was -3 % of GpH7-B3/GpL16-k0.
